From paper PMC3030633 (Journal of molecular biology, 2010)
No end group written: not given here. fluorescein = fluorescein label on the C-terminus of the peptide; Me3 = trimethyl-lysine

Columns and labels:
[1] = target: the histone peptide containing H3K4me3; experiment: ITC + fluorescence polarisation
[2] = target: PHF2 (1-451), containing both the PHD and Jumonji domains (human, UniProt O75151 1-451); experiment: fluorescence polarisation
Sequence of PHF2 (1-451), containing both the PHD and Jumonji domains (human, UniProt O75151 1-451) (O75151 1-451): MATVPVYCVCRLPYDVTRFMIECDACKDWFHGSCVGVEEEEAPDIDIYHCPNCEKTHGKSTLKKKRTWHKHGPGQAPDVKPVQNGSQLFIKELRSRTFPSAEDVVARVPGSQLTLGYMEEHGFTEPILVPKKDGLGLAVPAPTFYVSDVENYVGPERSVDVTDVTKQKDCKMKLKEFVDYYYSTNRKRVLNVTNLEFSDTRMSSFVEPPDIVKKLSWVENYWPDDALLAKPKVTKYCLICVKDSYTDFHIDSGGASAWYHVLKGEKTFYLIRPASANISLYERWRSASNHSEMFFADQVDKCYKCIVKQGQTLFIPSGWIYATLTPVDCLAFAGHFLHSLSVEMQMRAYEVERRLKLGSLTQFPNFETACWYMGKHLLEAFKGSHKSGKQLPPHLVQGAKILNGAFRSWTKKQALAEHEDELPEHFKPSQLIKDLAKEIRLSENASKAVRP

Molecule: PHF2 (1-451), containing both the PHD and Jumonji domains (from UniProt O75151 1-451) (domain or fragment)
- Kd [1]: 230 to 270 nM

B1: H3(1-15)K4me3 peptide, C-terminal fluoresceinated (peptide, UniProt P68431 2-16, looked up)
peptide: ARTK(Me3)QTARKSTGGKA-fluorescein
- binding result [2]: binds
